Among the data in the RNAGym collection of RNA variant scans (doi:10.1093/molbev/msab373) are reverse-splicing fitness values, retold here.

B1: Azoarcus group I ribozyme (parent)
chain: GUGCCUUGCGCCGGGAAACCACGCAAGGGAUGGUGUCAAAUUCGGCGAAACCUAAGCGCCCGCCCGGGCGUAUGGCAACGCCGAGCCAAGCUUCGGCGCCUGCGCCGAUGAAGGUGUAGAGACUAGACGGCACCCACCUAAGGCAAACGCUAUGGUGAAGGCAUAGUCCAGGGAGUGGCGAAAGUCACACAAACCGG

The data set covers variants of B1. Put plainly: reverse-splicing fitness (ratio to wild type); higher = more active; in vitro selection; Mg2+ level not given. In short, it runs like this: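 An in vitro group I ribozyme library with randomized positions was T7-transcribed and gel-purified. In triplicate, 10 pmol RNA in EPPS pH 7.5 was reacted with 50 pmoles of a 30-nt RNA substrate for 1 h at 37 °C across several added MgCl2 levels (1–48 mM), then stopped with EDTA. Products were reverse transcribed from a substrate-complementary primer, PCR-amplified and sequenced (HiSeq 4000). Fitness is a variant's read proportion after selection over that before, normalised to wild type.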
For C82G A120G A145U C150U C169U U176G, the reverse-splicing fitness is 0.00413.

With A111U A145G C169G U176G, the reverse-splicing fitness was found to be 0.00535.

As to C82G A111G A145G C150U C169G U176A, the reverse-splicing fitness was determined as 0.017.

Regarding C82G A111C A145C C150G C169U U176G, the reverse-splicing fitness is 0.0071.

In the case of A111G A145G C150A C169A U176C, the reverse-splicing fitness was found to be 0.0214.

On to C82G A120C A145U C150A U176C, for which the reverse-splicing fitness was 0.0216.

In the case of A111G A145G C169G U176C, the reverse-splicing fitness worked out at 0.0596.

In the case of C82G A111C A120U C150G C169G U176A, the reverse-splicing fitness stood at 0.0049.

Turning to C82G A111U A120C C150U C169G U176A, the reverse-splicing fitness was determined as 0.0159.

For C82U A111U A145G, the reverse-splicing fitness is 0.332.

In the case of C82A C150G C169A U176C, the reverse-splicing fitness was found to be 0.0111.

For C82A A111G A120G A145C C150A U176G, the reverse-splicing fitness was found to be 0.00509.

Turning to A120U A145C C150A, the reverse-splicing fitness was determined as 0.116.

C82U A111U A120G C150A C169U: the reverse-splicing fitness amounted to 0.00823.

As to C82A A111G A120C A145G C150G U176C, the reverse-splicing fitness was determined as 0.0121.

As for C82A A145G C150A, the reverse-splicing fitness was 0.0995.

On to A111G A145C C150A U176A, for which the reverse-splicing fitness was determined as 0.129.

As for C82G A111C A145C C150G U176C, the reverse-splicing fitness turned out to be 0.0203.

Regarding C82A A111U C150U C169A, the reverse-splicing fitness was 0.0102.

As for C82U A120G A145G C150A C169G U176G, the reverse-splicing fitness was 0.00413.

As to C82A A120G C150U C169G U176C, the reverse-splicing fitness is 0.0193.

For the variant C82G A111G A120G U176C, the reverse-splicing fitness came to 0.0217.

Regarding C82G A145G C150U C169A U176A, the reverse-splicing fitness worked out at 0.0169.

Take C82U A145C C150A C169G U176G: the reverse-splicing fitness was determined as 0.00485.

With C82U A111C A145U C150U C169A U176A, the reverse-splicing fitness is 0.0126.

In the case of C82A A120C C150A C169G U176A, the reverse-splicing fitness worked out at 0.021.

As to C82U A120G A145G C169U U176G, the reverse-splicing fitness was determined as 0.00378.

Turning to C82U A111G A120U A145C C150U C169A U176A, the reverse-splicing fitness amounted to 0.00277.

Take C82A A120U A145U C169U U176G: the reverse-splicing fitness turned out to be 0.00154.

As for C82A A111C A120C A145C C150U C169G, the reverse-splicing fitness is 0.00741.

As for A111G A120G C150U C169A U176G, the reverse-splicing fitness stood at 0.00588.

For the variant C82G A111G A120C C150G C169G U176A, the reverse-splicing fitness was determined as 0.00929.

With C82U A111G A120U A145C C169U U176G, the reverse-splicing fitness amounted to 0.00126.

As for C82U A111G A120C A145G C169G, the reverse-splicing fitness came out at 0.00801.

In the case of A120G A145G C150G C169U, the reverse-splicing fitness turned out to be 0.094.

Take C82U A111C A145U C150U C169U U176C: the reverse-splicing fitness was determined as 0.0136.

Take C82U A111G A120C A145G C169A U176A: the reverse-splicing fitness is 0.0153.

Take C82U A111G C150A C169A U176A: the reverse-splicing fitness is 0.0183.

As for A111G A120C A145C C150G C169A, the reverse-splicing fitness was determined as 0.00873.

With A111U A120G A145C C150U C169U U176C, the reverse-splicing fitness was 0.0209.

For the variant C82U A111C A120G A145G C150A C169U U176G, the reverse-splicing fitness is 0.00519.

Consider C82U A111U A145U C169U, for which the reverse-splicing fitness came out at 0.0106.

C82U A120U C150A C169G U176C: the reverse-splicing fitness turned out to be 0.00268.

With C82A A145U C150U C169G U176C, the reverse-splicing fitness stood at 0.013.

C82G A111G A120C A145G C150G C169A: the reverse-splicing fitness worked out at 0.00978.

Regarding A111U A120C A145U C150U U176A, the reverse-splicing fitness turned out to be 0.194.

As to C82A A111U A120G A145C C150G C169G U176C, the reverse-splicing fitness came out at 0.00725.

Take C82A A111C A145G C150U: the reverse-splicing fitness is 0.174.

In the case of A120G A145G C150U C169U, the reverse-splicing fitness was 0.37.

Turning to C82U A111G A120U A145C C169U, the reverse-splicing fitness was 0.00379.

As to C82A A111U A145C U176A, the reverse-splicing fitness worked out at 0.0948.

As for C82A A111C A145U C150U C169A U176C, the reverse-splicing fitness came to 0.0146.

Turning to A120U A145C C150U C169A U176C, the reverse-splicing fitness worked out at 0.00274.

On to C82G A111G A145U C150G C169G, for which the reverse-splicing fitness was determined as 0.00774.

For the variant A111G A120U A145C C150U U176G, the reverse-splicing fitness turned out to be 0.0448.

For the variant C82G A111G A145C C169U U176A, the reverse-splicing fitness is 0.0135.

For C82G A111C A120G A145C C169U U176A, the reverse-splicing fitness came to 0.0164.

With C82A A111G A120U A145G C150A C169U U176G, the reverse-splicing fitness stood at 0.00288.

With A120C A145U C150U C169A U176C, the reverse-splicing fitness stood at 0.0111.

Regarding A111C A120U A145C C150A C169G U176G, the reverse-splicing fitness came to 0.0024.

For the variant C82G A120U A145G C150A C169G U176C, the reverse-splicing fitness was 0.00422.

Turning to C82G A120C A145G C150U C169U, the reverse-splicing fitness is 0.0243.

Take C82G A111U A145C C150U: the reverse-splicing fitness is 0.0722.

As to C82U A111C, the reverse-splicing fitness was 0.251.

Consider C82U A111U A120G A145C C150G C169A U176A, for which the reverse-splicing fitness turned out to be 0.00764.

On to C82A A111G A120U A145G C169A U176A, for which the reverse-splicing fitness came out at 0.0033.

With C82U A111U A120G A145C C169A U176C, the reverse-splicing fitness came to 0.00603.

Consider C82U A111C C150G C169A U176C, for which the reverse-splicing fitness came out at 0.00957.

For C82G A111G A120C A145U C150G, the reverse-splicing fitness came out at 0.0127.

For the variant C82A A145U C150G, the reverse-splicing fitness is 0.0675.

On to A111G A120C C150G, for which the reverse-splicing fitness stood at 0.0783.

In the case of C82A A120U U176G, the reverse-splicing fitness was determined as 0.0095.

With A111U A120C A145G U176C, the reverse-splicing fitness came to 0.306.

With C82G A111G A120C A145G C150U U176G, the reverse-splicing fitness stood at 0.0117.

Turning to C82A A111U A120U C150G U176A, the reverse-splicing fitness turned out to be 0.00499.

Take C82U A111G A145U C150G C169G U176C: the reverse-splicing fitness came out at 0.00527.

Take C82G A120C A145C C150U C169G U176G: the reverse-splicing fitness is 0.00532.

In the case of C82U A120C C169G, the reverse-splicing fitness was 0.00705.

With C82U A111C A120C A145U C150A U176G, the reverse-splicing fitness was 0.00561.

On to C82A A111U A120G A145U C150U C169G U176G, for which the reverse-splicing fitness came out at 0.00527.

On to C82U A120C A145G C150A U176C, for which the reverse-splicing fitness amounted to 0.0295.

As for C82G A111G A120G A145C C150A C169G, the reverse-splicing fitness is 0.00843.

As for C82U A120U A145U C150U C169U U176A, the reverse-splicing fitness amounted to 0.0028.

In the case of A111U A120G A145C C150A C169G U176A, the reverse-splicing fitness was 0.0261.
